Assay results from publication PMC10720262 (Cell Reports, 2023).
Residue numbers refer to the chain shown, from its start.

Target: recombinant full-length PfCSP (Plasmodium falciparum circumsporozoite protein, strain NF54) (Plasmodium falciparum NF54, UniProt P19597)
Sequence (P19597 20-375): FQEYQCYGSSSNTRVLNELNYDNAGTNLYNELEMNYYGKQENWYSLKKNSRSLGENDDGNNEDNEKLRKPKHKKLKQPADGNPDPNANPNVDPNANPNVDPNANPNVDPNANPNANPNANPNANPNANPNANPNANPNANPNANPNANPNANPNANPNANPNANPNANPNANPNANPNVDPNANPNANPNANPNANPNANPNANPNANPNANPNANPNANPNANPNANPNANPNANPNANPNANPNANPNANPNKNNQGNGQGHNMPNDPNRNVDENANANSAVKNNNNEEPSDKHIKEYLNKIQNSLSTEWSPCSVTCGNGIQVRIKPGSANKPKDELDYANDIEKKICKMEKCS

B1: CL-462788 (antibody, V domains shown)
VH: QVQLVESGGGVVQPGRSLRLSCAASGFTFRNYGMHWVRQAPGKGLEWVAIIWYDGSYKFYADSVKGRFTISRDNSKNTLYLQMNSLRAEDTAMYYCARDDALELRSFDIWGQGTMVTVSS
VL: DVVMTQSPLSLPVTLGQPASISCRSSQSLVYSDENTYLSWFQQRPGQSPRRLIYKISNRDSGVPDRFSGSGSGTDFTLKISRVEAEDVGVYYCMQGTHWPRTFGQGTEVEIK
binding result: binds

B2: CL-509880 (antibody, V domains shown)
VH: QVQLVESGGGVVQPGRSLRLSCAASGFTFSNSGMHWVRQAPGKGLEWVAVIWYDGSNKYYADSVKGRFTVTRDNSKNTLYLQMNSLRAEDTAVYYCVRAYYGSGSYHFKYGMDVWGQGTTVTVSS
VL: not shown
binding result: binds

B3: CL-509940 (antibody, V domains shown)
VH: QVQLVESGGGVVQPGRSLRLSCAASGFTFSTYGMHWVRQAPGKGLEWVAVIWYDGSIKFYADSVKGRFTISRDDSKNTLYLQMNSLRAEDTAVYYCARDGGYSDSGRFGWFDPWGQGNLVTVSS
VL: EIVMTQSPVTLSVSPGERVTLSCRASQSVSSNLAWYQQKPGQAPRLLIYGASNRATGIPDRFSGSGSGTEFSLTVTSLQSEDFAVYYCQQYNQWRTFGQGTKVEIR
binding result: binds

B4: CL-509177 (antibody, V domains shown)
VH: QVQLVESGGGVVQPGRSLRLSCAASGFSFSSYGMHWVRQTPGKGLEWVAIIWYDGSNKFYADSVKGRFIISRDNSKNTLYLQMNSLRAEDTAVYYCARDGGYSTSAGDFDYWGQGTLVTVSS
VL: EIVLTQSPGTLSLSPGERATLSCRASQSVSSSYLAWYQQKPGQAPRLLIYGASSRATGIPDRFSGRGSGTDFTLTISRLEPEDFAVYYCQQYVSSFTFGPGTKVDIN
binding result: binds

B5: CL-509930 (antibody, V domains shown)
VH: QVQLVESGGGVVQPGRSLRLSCAASGFTFSSYGMHWVRQAPGKGLEWVAIIWHDGSNKYYADSVKGRFTISRDNSKNTLYLQMNSLRAEDTAVYYCARDYSSFYFDYWGQGTLVTVSS
VL: not shown
binding result: binds

B6: CL-509370 (antibody, V domains shown)
VH: QVQLVESGGGVVQPGRSLRLSCAASGFTFSSYGMHWVRQAPGKGLEWVAVIWYDGSNKFYADSVKGHFTISRDNSKNTLYLQMNSLRAEDTAVYYCARDGRDLRGTGPYFDPWGQGTLVTVSS
VL: EIVMTQSPATLSVSPGERAILSCRASQSVSSNLAWYQQKPGQAPRLLIYGASIRATGIPARFRGSGSGTEFTLTISILQSEDFAVYYCQQYNNWITFGQGTRLEIK
binding result: binds

B7: CL-510433 (antibody, V domains shown)
VH: QVQLVESGGGVVQPGRSLRLSCVASGFTFSSYGMHWVRQAPGKGLEWVAVIWYDGSNKYYADSVKGRFTVSRDNSKNTLYLQMNSLRAEDTAVYYCARVYYYGSGSYSPYYYALDVWGHGTTVTVSS
VL: B6 VL with I20T, V29I, R63S, T74S, V85I, I95W, R102K, L103V
binding result: binds

B8: CL-464097 (antibody, V domains shown)
VH: QVQLVESGGGAVQPGRSLRLSCAASGFTFSYNGMHWVRQAPGKGLEWVAIIWYDGSNKYYAESVKGRFTISRDNSKDTLYLQMNSLRAEDTAIYYCVRAWNYEDKKYSMDVWGQGTTVTVSS
VL: DIQMTQSPSTLSASVGDRVTITCRASQSISSWLAWYQQKPGKAPKLLIYKASSLESGVPSRFSGSGSGTDFTLTISSLQPDDFATYYCQQYNYFWTFGQGTKVEIR
binding result: binds

B9: CL-510416 (antibody, V domains shown)
VH: QVQLVESGGGVVQPGRSLRLSCEASGFTFSNYGMHWVRQGPGKGLEWVALMWYDGSNKYYSDSVKGRFTISRDNSKSTLYLQMNSLRAEDTAVYYCARPITGNTHSKYTMDVWGQGTTVTVSS
VL: B8 VL with S53T, D70E, Y87F, Y93S, F94Y, R106K
binding result: binds

B10: CL-509494 (antibody, V domains shown)
VH: QVQLVESGGGVVQPGRSLRLSCAASGFTFSNFGMHWVRQSPGRGLEWVAIIWYDGSHKFYADSVKGRFTISRDNSKNTLYLQMNSLRAEDTAVYYCAKSEQRTNDHYYKYGMDVWGQGTTVTVST
VL: B8 VL with K45T, D70E, N92T, Y93N, F94Y, R106K
binding result: binds

B11: CL-510373 (antibody, V domains shown)
VH: QVQLVESGGGVVQPGRSLKLSCAASGFTFSSYGMHWVRQAPGRGLEWVSIIWYDGSNKFYSDSVQGRFTISRDDSKNTLYLQMNSLRAEDTAMYYCAMVANYTISSGAFDIWGHGTMVTVSS
VL: B8 VL with S31N, P40S, D70E, Y87F, N92K, Y93T, F94Y, R106K
binding result: binds

B12: CL-510092 (antibody, V domains shown)
VH: QVQLVESGGGVVQPGTSLRLSCAASGFTFSNFGMYWVRQAPGKGLEWVALIWYDGSNKFYEDSVKGRFTISRDNSKNTLYLQMNSLRAEDTAVYYCAKDGGYSGPGKYGFFRHWGQGSLVTVSS
VL: B8 VL with M4L, S31N, S65N, D70E, Q89H, Y93F, F94Y, R106K
binding result: binds

B13: CL-464181 (antibody, V domains shown)
VH: QVQLVESGGGAVQAGTSLRLSCAASGFSFSYNGMHWVRQGPGKGLEWVAIIWYDGGNKFYADSVKGRFTISRDNSKKMLYLQMNRLRAEDTAVYYCARAWNFADNKYSMDVWGQGTTVTVSA
VL: B8 VL with S31C, K45Q, D70E, N92Y, Y93I, F94Y, E104D, R106K
binding result: binds

B14: CL-510020 (antibody, V domains shown)
VH: QVQLVESGGGVVQPGRSLRLSCAASGFTFSSFGMYWVRQAPGKGLEWVALIWYDGSNQYYADSVKGRFTISRDNSKNTLYLQMNSLRAEDTAVYYCARAGYFYGSGSPLDYWGQGTLVTVPS
VL: B8 VL with R18G, K50M, D70E, N92Y, Y93N, F94Y, R106K
binding result: binds

B15: CL-508758 (antibody, V domains shown)
VH: QVQLVESGGGVVQPGRSLRLSCAASGFTFSNYGMHWVRQTPGRDLEWVAIIWYDGSYKFYADSVKGRFSISRDNSKNTLNLEMKSLRVEDTAVYYCAKAYDTSSDDKYGMDVWGQGTTVTVTS
VL: B8 VL with S31I, K50R, S53D, D70G, Y93S, F94Y, R106K
binding result: binds

B16: CL-510418 (antibody, V domains shown)
VH: QVQLVESGGGVVQPGQSLRLSCEASGFTFSNYGMHWVRQAPVKGLEWVAIIWFDGSYKYYADSVKGRFTVSRDNSKNTLYLQMDSLRAEDTAVYYCARARKGQRSDYYGSETSYTFDNWGQGTLVTVSS
VL: B8 VL with S30N, L46F, S53I, V58I, D70E, Y93S, F94Y, R106K
binding result: binds

B17: CL-509326 (antibody, V domains shown)
VH: QVYLVESGEGVVQPGRSLRLSCAASGFTFSNYGMHWVRQAPGKGLEWVAVIWYNGNNKFYADSVKGRFTISRDNSKNTLFLQMNSLRAEDTAVYFCARSGYSRSSYFDYWGQGTLVTVSS
VL: QSVLTQPPSVSGAPGQRVTISCTGSSSNIGAVYDVHWYQQLPGTAPKLLIYGNTNRPSGVPDRFSGSQSGTSASLAITGLQAEDEADYYCQSYDSSLSGSVFGGGTKLTVL
binding result: binds

B18: CL-464277 (antibody, V domains shown)
VH: QVQLVASGGGVVQPGRSLRLSCAVSGFTFRNYGMHWVRQDPGRGLEWVAIIWYDGSYKFYADSVKGRFTISRDNSKNTLYLQMNSLRAEDTAVYYCARSYGSLTGDQTKYGMDVWGQGTTVSVSS
VL: not shown
binding result: binds

B19: CL-510427 (antibody, V domains shown)
VH: QVQLVESGGGVVQPGRSLRLSCAASGFTFSNYGMHWVRQAPGKGLEWVAVIWYDGSKEDYADSVKGRLTISRDNSKNTLYLQMNSLRAEDTAVYYCARDGDSRGWYAFDYWGQGTLVTVSS
VL: not shown
binding result: binds

B20: CL-509025 (antibody, V domains shown)
VH: QVQLVESGGGVVQPGRSLRLSCVASGFTFSDYGMHWVRQAPGKGLEWVAVIWYDGTKEFFADSVKGRFTISRDNSKDTLYLQMNSLRAEDTGIYYCATYKWNSHLDYWGQGTLVTVSS
VL: EIVLTQSPATLSLSPGERATLSCRASQTISSYLAWYQQKPGQAPRLLIYDASNRATGIPARFSGSGSGTDFTLTISSLEPEDFTVYYCQQRSNWPLTFGGGTKVGIK
binding result: binds

B21: CL-509293 (antibody, V domains shown)
VH: B10 VH with E6A, S21T, F32Y, H57N, S99A, H106N
VL: not shown
binding result: binds

B22: CL-462911 (antibody, V domains shown)
VH: QVHLVESGGGVVQPGRSLTLSCAASGFTFSSCGMHWVRQAPGKGLEWLAVIWYDGSNKYYADSVKGRFTISRDNSKNTLYLQMNSLRAEDTAVYYCARDGGYVRDYYYGMDVWGQGTTVTVSS
VL: not shown
binding result: binds

B23: CL-508731 (antibody, V domains shown)
VH: QVQLVESGGGVVQPGRSLRLSCVASGFTFSNNGMHWVRQAPGKGLEWVAIIWHDGSNKFYAESVRGRFTISRDNSNNTLYLQMNSLRAEDTAVYYCARDRMFGSGSWNYFDPWGQGTLVTVSS
VL: EIVLTQSPATLSLSPGERATLSCRASQSISTYLAWYQQKPGQAPRLLIYDASNRATGIPARFSGSGSGTDFTLTISSLEPEDFAVYYCQQRSYWWTFGQGTKVEIK
binding result: binds

B24: CL-510082 (antibody, V domains shown)
VH: B23 VH with R16K, V37I, H53Y, E62D, R65K, N76H, S106T
VL: B23 VL with I29V
binding result: binds

B25: CL-509993 (antibody, V domains shown)
VH: B23 VH with H53Y, F59Y, E62D, R65K, S106T
VL: B23 VL with I29V, S30T, Y93N
binding result: binds
